# Experimental data taken from paper PMC12433258, “Binding Differences of the Peptide‐Substrate–Binding Domain of Collagen Prolyl 4‐Hydroxylases I and II for Proline‐ and Hydroxyproline‐Rich Peptides” (Proteins, 2025).
# Legend:
# [1] = biological target: T1, PSB‐I^143–238 construct (peptide‐substrate–binding domain of the α‐I subunit of human collagen prolyl … (human, UniProt P13674 160-255)); assay: ITC; 3 mM peptide titrated into 50 μM PSB‐I^143–238 in the cell; 20 mM Bis‐Tris, 100 mM glycine, pH 6.8; 25°C; one‐set‐of‐sites model with fixed stoichiometry (n = 1); three measurements; settings: both partners purified
# T1 construct: numbers count on: the mature protein (α-I subunit after cleavage of the signal peptide); Monomer by SEC-MALS; also called PSB‐I construct; PSB‐I domain; source: E. coli Rosetta(DE3)pLysS, pET22b(+), purified (Ni‐NTA, Superdex75 SEC); not shown: Leu-Glu-His6, C-terminal, kept
# T1 sequence (P13674 160-255): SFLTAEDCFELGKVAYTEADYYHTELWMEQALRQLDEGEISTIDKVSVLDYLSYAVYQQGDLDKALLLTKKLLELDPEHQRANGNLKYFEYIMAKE
# [2] = biological target: the molecule itself; assay: crystal structure; PSB‐I^144–244 crystallized without peptide, hanging drop, 4°C; 1 M sodium citrate, 0.1 M CHES, pH 9.5; contact between crystallographically related chains
Kd [1],dH [1],Binder,binding result [2]
309 µM,-13.6 kcal/mol,"PPGPPGPPG (collagen-like model peptide, 9 residues, free amino and free carboxylate ends; also called (PPG)3; source: synthetic peptide; bought: TAG Copenhagen A/S) [PPG‐PPG‐PPG peptide]",–
91.3 µM,-12.4 kcal/mol,"PPGPAGPPG (collagen-like model peptide, 9 residues, free amino and free carboxylate ends; also called PxGP‐peptide; source: synthetic peptide; bought: TAG Copenhagen A/S) [PPG‐PAG‐PPG peptide]",–
37 µM,-14.9 kcal/mol,"PPGPRGPPG (collagen-like model peptide, 9 residues, free amino and free carboxylate ends; also called PxGP‐peptide; source: synthetic peptide; bought: TAG Copenhagen A/S) [PPG‐PRG‐PPG peptide]",–
84.3 µM,-13.2 kcal/mol,"PPGPEGPPG (collagen-like model peptide, 9 residues, free amino and free carboxylate ends; also called PxGP‐peptide; source: synthetic peptide; bought: TAG Copenhagen A/S) [PPG‐PEG‐PPG peptide]",–
80.9 µM,-9.5 kcal/mol,"PPPPPPPPP (polyproline peptide of 9 residues, free amino and free carboxylate ends; printed as (Pro)9; also called P9; source: synthetic peptide; bought: TAG Copenhagen A/S) [(Pro)9 peptide]",–
–,–,"PSB‐I^144–244 construct (longer PSB‐I construct of human C‐P4H‐I α‐subunit) (domain or fragment, numbers count on: the mature protein (α-I subunit after cleavage of the signal peptide); C-terminal Leu-Glu-(His)6 tag; The C-terminal Leu-Glu-His6 tag is kept and is written as a part, not under tags; also called longer PSB‐I^144–244 variant) FLTAEDCFELGKVAYTEADYYHTELWMEQALRQLDEGEISTIDKVSVLDYLSYAVYQQGDLDKALLLTKKLLELDPEHQRANGNLKYFEYIMAKEKDVNKSLEHHHHHH",binds
